Results taken from patent US5670616.

Target: FLAG GG 9-mer (SEQ ID NO:20)

Trypsin (type XI DPCC treated) (enzyme)
completeness of proteolytic cleavage (relative mobility on SDS gels): 100%
